The test system of series [1] is ubiquitin-Met-beta-galactosidase fusion protein.
Series [2] concerns the target ubiquitin-Met-beta-galactosidase fusion protein. This is another data set of the same source.

Changes are numbered by the printed parent chain.

On to GST-DUB-3 fusion protein (pGEX-DUB-3), for which the “cleavage of ubiquitin from the ubiquitin-Met-beta-galactosidase fusion protein (immunoblot with anti-beta-galactosidase)” value in series [1] is given as “DUB-3 displayed deubiquitinating activity at least equivalent to that of DUB-1”. The same measure, in the same setting: the value for “GST-DUB-3C89S fusion protein (pGEX-DUB-3C89S)” was “this activity was ablated by mutating the cysteine residue (C89S) conserved within the active site”.

B1: GST-DUB-1 fusion protein (pGEX-DUB-1) (protein)
chain: MVVALSFPEADPALSSPDAPELHQDEAQVVEELTVNGKHSLSWESPQGPGCGLQNTGNSCYLNAALQCLTHTPPLADYMLSQEHSQTCCSPEGCKLCAMEALVTQSLLHSHSGDVMKPSHILTSAFHKHQQEDAHEFLMFTLETMHESCLQVHRQSKPTSEDSSPIHDIFGGWWRSQIKCLLCQGTSDTYDRFLDIPLDISSAQSVKQALWDTEKSEELCGDNAYYCGKCRQKMPASKTLHVHIAPKVLMVVLNRFSAFTGNKLDRKVSYPEFLDLKPYLSEPTGGPLPYALYAVLVHDGATSHSGHYFCCVKAGHGKWYKMDDTKVTRCDVTSVLNENAYVLFYVQQANLKQVSIDMPEGRINEVLDPEYQLKKSRRKKHKKKSPFTEDLGEPCENRDKRAIKETSLGKGKVLQEVNHKKAGQKHGNTKLMPQKQNHQKAGQNLRNTEVELDLPADAIVIHQPRSTANWGRDSPDKENQPLHNADRLLTSQGPVNTWQLCRQEGRRRSKKGQNKNKQGQRLLLVC
Regarding B1, the “cleavage of the Ub-Met-beta-gal fusion” value in series [2] was “Deubiquitinating activity was demonstrated for both DUB-1 and DUB-3 fusion proteins by the cleavage of the Ub-Met-β-gal fusion”.

B2: GST-DUB-1C60S fusion protein (pGEX-DUB-1 (C60)) (protein)
chain: B1 chain with C60S
Turning to B2, the “cleavage of the Ub-Met-beta-gal fusion” value in series [2] is “DUB-1C60S (lane 3) and DUB-3C89S (lane 5) are catalytically inactive”.

Source of the values: patent publication US20070129319.
